In series [1] the target is Campylobacter jejuni FucX (Cj0485), C-terminally six-histidine tagged (Campylobacter jejuni NCTC11168). Briefly: crystal structure; FucX pre-incubated with excess NADP+, space group P1, four monomers in the asymmetric unit; 23-26% PEG 4000, 0.08 M Tris pH 8.5, 0.15 M MgCl2, 20% glycerol; 2.15 Å.
Series [2] shares this target. Briefly: crystal structure; apo FucX, space group C222(1), two monomers in the asymmetric unit, tetramer generated by the crystallographic lattice; crystals grown at 18 °C in 3.4 M 1,6-hexanediol, 0.1 M Tris pH 8.5, 0.2 M MgCl2; 1.60 Å.
The subject of series [3] is OC1OC[C@@H](O)[C@@H](O)[C@@H]1O. Briefly: purified protein. The settings on record: NADP+ in excess, 50 mM Tris-HCl pH 7.5, 1 mM Mg2+, room temperature.
Series [4] deals with NC(=O)c1ccc[n+]([C@@H]2O[C@H](COP(=O)(O)OP(=O)(O)OC[C@H]3O[C@@H](n4cnc5c(N)ncnc54)[C@H](O)[C@@H]3O)[C@@H](O)[C@H]2O)c1. Briefly: purified protein. The settings on record: L-fucose in excess, 50 mM Tris-HCl pH 7.5, 1 mM Mg2+, room temperature, varied: cofactor.
In series [5] the test system is C[C@@H]1OC(O)[C@@H](O)[C@H](O)[C@@H]1O. As to the kind of experiment: purified protein. The settings on record: NADP+ in excess, 50 mM Tris-HCl pH 7.5, 1 mM Mg2+, room temperature.
Series [6] deals with NC(=O)c1ccc[n+]([C@@H]2O[C@H](COP(=O)(O)OP(=O)(O)OC[C@H]3O[C@@H](n4cnc5c(N)ncnc54)[C@H](OP(=O)(O)O)[C@@H]3O)[C@@H](O)[C@H]2O)c1. As to the kind of experiment: purified protein. The conditions noted are these: L-fucose in excess, 50 mM Tris-HCl pH 7.5, 1 mM Mg2+, room temperature, varied: cofactor.

Broadly, the stoichiometry N is the number of molecules, sites or subunits per partner or assembly. Usually Km stands for the concentration of substrate that gives half-maximal velocity. Usually kcat stands for the number of substrate molecules converted per active site and unit of time at saturation.

With “Campylobacter jejuni FucX (Cj0485), C-terminally six-histidine tagged (enzyme)”, the stoichiometry N in series [1] and in series [2] was 4 each time.

As to “FucX (Cj0485) (Campylobacter jejuni subsp. jejuni NCTC 11168 = ATCC 700819)”, the Km in series [3] is 672.2 ± 82.8 µM; in series [4], 6050 ± 1080 µM; in series [5] it was 233.8 ± 26.2 µM; in series [6], 9.9 ± 1.9 µM. Moreover, the kcat was determined as 18.9 ± 0.8 s⁻¹ in series [3], 20.5 ± 2.1 s⁻¹ in series [4], 26.3 ± 0.7 s⁻¹ in series [5] and 16.5 ± 0.7 s⁻¹ in series [6].

The values above are taken from PMC6946681, “The gastrointestinal pathogen Campylobacter jejuni metabolizes sugars with potential help from commensal Bacteroides vulgatus” (Communications Biology, 2020).
